{
  "source": "paper PMC8018780",
  "about": "“Two peptides targeting endothelial receptors are internalized into murine brain endothelial cells” (PLoS ONE, 2021)",
  "target": "recombinant mouse transferrin receptor (TfR) protein (mouse) (UniProt Q62351)",
  "sequence (Q62351 whole entry)": "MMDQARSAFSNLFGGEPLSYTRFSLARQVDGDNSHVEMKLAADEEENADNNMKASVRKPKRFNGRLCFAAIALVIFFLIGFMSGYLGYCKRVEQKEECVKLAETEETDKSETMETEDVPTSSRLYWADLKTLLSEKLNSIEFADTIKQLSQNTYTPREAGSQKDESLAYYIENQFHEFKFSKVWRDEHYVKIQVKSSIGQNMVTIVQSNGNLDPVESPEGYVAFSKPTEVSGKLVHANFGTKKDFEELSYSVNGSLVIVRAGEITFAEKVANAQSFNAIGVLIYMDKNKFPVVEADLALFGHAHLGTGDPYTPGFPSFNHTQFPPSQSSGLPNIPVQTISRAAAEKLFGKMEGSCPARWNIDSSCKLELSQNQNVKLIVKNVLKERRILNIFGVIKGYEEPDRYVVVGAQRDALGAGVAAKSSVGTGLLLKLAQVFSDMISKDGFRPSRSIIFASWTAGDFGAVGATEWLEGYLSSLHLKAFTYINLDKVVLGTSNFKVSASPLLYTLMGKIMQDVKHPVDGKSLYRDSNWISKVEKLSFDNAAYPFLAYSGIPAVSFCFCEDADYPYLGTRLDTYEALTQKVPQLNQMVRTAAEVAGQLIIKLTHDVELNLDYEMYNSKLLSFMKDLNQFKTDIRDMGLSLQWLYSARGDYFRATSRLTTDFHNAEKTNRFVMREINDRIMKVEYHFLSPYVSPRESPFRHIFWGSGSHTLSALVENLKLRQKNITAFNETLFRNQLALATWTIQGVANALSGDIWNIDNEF",
  "test": "SPR; Biacore 3000, CM5 chip, receptors immobilised by EDC/NHS coupling (TfR 58 fmol/mm^2, LRP-1 0.025 fmol/mm^2); peptides injected at 0.25-4 uM, 5 uL/min, 25°C, 10 mM HEPES, 150 mM NaCl, 1.5 mM CaCl2, 1 mM EGTA, 0.005% Tween 20, pH 7.4; Langmuir 1:1 model, global fit",
  "note": "Ends that are not written are not given here.",
  "data": [
    {"binder": "GYRPVHNIRGHWAPGK-NH2", "note": "[GYR (peptide 2)]", "values": [
      {"measurement": "Kd", "result": 1, "unit": "mM"}
    ]}
  ]
}
